In CN111253486A (ZAI LAB SHANGHAI CO LTD, dated 2020):

Molecular target: T1, human PD-1-his (recombinant human PD-1 extracellular domain with C-terminal polyhistidine tag) (human, UniProt Q15116 25-170)
T1 construct: extracellular domain; also called 人PD-1-his; hPD-1蛋白
Assay: SPR (Biacore 8K), antibody captured, antigen injected

T1 sequence (Q15116 25-170): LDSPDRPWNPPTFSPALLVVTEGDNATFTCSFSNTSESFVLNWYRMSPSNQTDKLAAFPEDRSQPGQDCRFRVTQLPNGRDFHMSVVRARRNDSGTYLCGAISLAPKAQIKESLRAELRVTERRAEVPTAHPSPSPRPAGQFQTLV

Binder	Kd [nM]	koff [s⁻¹]	kon [M⁻¹ s⁻¹]
murine anti-PD-1 antibody 31G1E10 (antibody, V domains shown) VH: EVKLVESGGGLVKPGGSLKLSCAASGFTFSSYGMSWVRQTPEKRLEWVATISGGGRDTYYPDSVKGRFTISRDNAKNNLYLQMNNLRSEDTALYYCARQRDSAWFAHWGQGTRVTVSA VL: not shown	1.16	0.000198	171000
murine anti-PD-1 antibody 56B3C11 (antibody, V domains shown) VH: EVMLVESGGGLVQPGGSLKLSCAASGFTFNSYTMSWVRQTPEKRLEWVAYISFGGGDTYYPDTVKGRFTISRDNAKNTLYLQMNSLKSEDTAMYYCARQGNYEGAPFAYWGQGTLVTVSA VL: DIQMTQTTSSLSASLGDRVTISCRASQDISNFLNWYQLKPDGTIKLLIYYTSRLHSGVPSRFSGSGSGTDYSLTITDLEQEDIATYLCQQGDMIPWTFGGGTKLEIK	2.43	0.000295	122000
